Test results from paper PMC7509637 (Advanced Science, 2020).
Values joined by “and” are separate entries in the source; they are usually repeats but may differ in a detail not shown here. Identical values can stand only once. “Also recorded” adds a separate entry of the source.

B1: FapCS: FapC seeds obtained by sonication of mature FapC fibrils (P. aeruginosa) (protein)
chain: GNEGGWHPPKPNPQSNNKGGATALVVDTQQNYNNKVSNFGTLNNASVSGSIKDASGNVGVNVAAGDNNQQANAAALASADASFVFGTATASTSVLQSGYGNTLNNYSNPNTASLSNSANNVSGNLGVNVAAGNFNQQKNDLAAAVSNGQYSTAGSAASQTSTGNTTVNSANYAYGGTYVSLKLNADGSYKGTSDQIGDVYLDTWEGQTHPGGSNTGHIDVDSQAQGAKDLNHDGGAFAFKEKGDVDLKGTVSGFIPAIVGFKTPVTNNASLSNSLQNVSGNVGVNIAAGGGNQQSNSLSIAAGCSSCPAGGESLGF

What was measured:
[1] = tested on: adult zebrafish; assay: Behavioral pathology of adult zebrafish (swimming); format: in vivo, zebrafish (AB, Danio rerio)
Description: Adult zebrafish (10 months) were employed for the study. Prior to microinjection, adult zebrafish were anesthetized by placing them in a beaker filled with ice‐chilled tricaine (0.01% in Holtfreter's buffer) for 20 s. The samples of Aβ alone and Aβ with FapCS or bacterial biofilm fragments were injected to the cerebroventricular space of adult fish with a 1 µL Hamilton glass syringe. The concentration of the Aβ peptide was 40 × 10^−6 M (in PBS, pH 7.4) while FapCS or biofilm fragments were included at a 10:1 ratio (Aβ:FapCS or biofilm fragments). The needle penetrated between left and right telencephalon for not more than 1 mm and injection volume was 1 µL. The syringe was washed with ethanol and PBS in between the injections. The injections were made under a stereomicroscope and fish were held in place with forceps. After microinjection, the fish was placed back in the water tank for recovery.
The behavioral pathology of the adult fish was observed after 4 d and 2 weeks of microinjection. The behavioral pathology of movement frequency and traveled distance was recorded with a zebrabox (Viewpoint) in a 1 L swimming tank. For cognitive function test, the tank was hypothetically divided into two parts of arena 1 and arena 2, and arena 2 was labeled by pasting a red paper at the bottom of the tank. The behavior of the untreated fish was recorded as positive control, in both arenas. Then fish from each sample were trained to avoid swimming in arena 2 by shocking with a 9 V battery electrodes, whenever the fish swim into arena 2. The fish were allowed to familiarize with the tank for 30 min and then trained for 20 min. After training, the swimming behavior of the fish was recorded in whole tank and then analyzed for arena 1 versus arena 2 with software EthnoVision X1.
The observations were made for 1 min with three fish per samples. The measurements were made three times in a day and then averaged together. […] Movement trajectories were also recorded with the instrument's camera.

[2] = target: T1, Aβ (Homo sapiens, UniProt P05067); assay: Circular dichroism spectroscopy, secondary structure; conditions: 37 °C, CD; for β-sheet content: Contin/reference set 4, n = 3; for random coil content: n = 3
T1 construct: purchased Anaspec Inc
Description: Solutions of 200 µL, at similar molar ratios as for ThT assay, were prepared and incubated at 37 °C. CD spectra for different samples at 0, 12 and 48 h were measured with a CD spectrophotometer (Jasco) from 190 to 240 nm (1 nm step size). The percentage secondary structure was calculated by the CD data via Dichroweb analysis with parameters of Contin/reference set 4.^[ ^95 ^]

[3] = target: T1, Aβ; assay: ThT assay of Aβ with P. aeruginosa biofilm fragments; format: biochemical; conditions: Aβ 50 × 10^−6 M ± biofilm fragments 5 × 10^−6 M (protein content), 37 °C, Figure S14
Description: P. aeruginosa biofilm fragments were generated by incubating fresh subcultures of bacteria (wild‐type reference strain PAO1) in cation‐adjusted Mueller‐Hinton broth (CAMHB) overnight in a 96‐well plate. After 48 h of incubation, the planktonic bacteria were pipetted out from the culture and replaced with fresh PBS (pH 7.4). The surface pellicle biofilm and ring biofilm attached to the well walls were scooped out and dispersed in PBS. The separated biofilm chunks were purified from the embodied bacteria by vortexing (10 min) with 20 µm glass beads and then repeated centrifugal washing (3 min, 2000 g) with PBS (pH 7.4). The biofilm containing supernatant was collected, concentrated, and adjusted to the concentration of 5 mg mL^−1 in deionized water. The concentration was adjusted with respect to the protein contents of biofilm via the BCA assay. […]
Aβ (Anaspec Inc., purity ≥ 95%) was dissolved in 100 µL of hexafluoro‐2‐propanol (HFIP) and incubated at room temperature for 3 h. […] The ThT fluorescence (excitation: 445 nm/ emission: 485 nm) was recorded at specified time intervals for 50 h. Kinetic parameters (rate constant k, half‐life t 1/2 and lag‐time) were calculated as described.^[ ^94 ^] Briefly, kinetic curves were fitted to a sigmoidal curve =y0+ymax−y0/1+e^−(t−t1/2)k , where y 0 and y max are initial and final ThT fluorescence values, allowing us to calculate lag time = t 1/2 − 2/k.

[4] = tested on: Aβ monomers; assay: Isothermal titration calorimetry (ITC); format: binding; conditions: Aβ 200 × 10^−6 M into 20 × 10^−6 M seeds, 0.1% NH4OH, 25 °C
Description: ITC (Malvern MicroCal iTC200) was used to explore the interaction between Aβ monomers and oligomers (Aβo) with FapCS. Sample solutions were degassed at 25 °C while stirring (100 rpm). Aβ (200 × 10^−6 M, 40 µL) was filled into the syringe while FapCS or bLgS (20 × 10^−6 M, 200 µL) were filled in the cell (coin shaped). 0.1% NH4OH buffer solution was used for both solutions. Aβ was injected into the cell at an injection volume of 2 µL at the duration of 4 s and with a spacing of 180 s. First injection was 0.2 µL for 0.4 s duration and a total of 16 injections were programed. The heat exchange was recorded with a Microcal analysis (origin v7) software. The heat of dilution (Aβ against buffer) was subtracted from the interaction heat of samples. The acquired curves were fitted to a sequential binding model and thermodynamic parameters of binding energy (ΔH), free energy (ΔG), and entropic factor (TΔS) were calculated. Aβo for the ITC experiments was prepared by incubating Aβ aqueous solution (200 × 10^−6 M) at 4 °C for 48 h.^[ ^65 ^]

[5] = 2 weeks postinjection, Aβ 1 µL, 40 × 10^−6 M, n = 3 per group, three groups

Molecule	distance traveled [1, 5]	movement frequency [1, 5]	swimming behavior (in words) ([1]; 4 d postinjection)	β-sheet content ([2]; 0 h)	random coil content ([2]; 0 h)	random coil content ([2]; 12 h)	β-sheet content ([2]; 48 h)	lag time [3]	binding to Aβ by ITC (in words) [4]
amyloid beta [Aβ]	57 ± 6.9 cm per min	6 ± 2 per min	did not produce significant difference in the swimming behavior compared to the buffer control	28% and 28 ± 9%	34 ± 6%	28 ± 1.5%	54% and 54 ± 4.5%	23 h	
B1									weak but favorable interaction; also recorded: favorable binding with Aβ
